We go through one molecule from patent US20220401480A1 (NOILE IMMUNE BIOTECH, published 2022).

This test concerns the target T1, recombinant fusion protein including mouse PD-1 and immunoglobulin Fc portion (mouse, UniProt Q02242 25-167, limits assumed).
T1 construct: also called mouse PD-1-Fc; not shown: immunoglobulin Fc portion
T1 sequence (looked up): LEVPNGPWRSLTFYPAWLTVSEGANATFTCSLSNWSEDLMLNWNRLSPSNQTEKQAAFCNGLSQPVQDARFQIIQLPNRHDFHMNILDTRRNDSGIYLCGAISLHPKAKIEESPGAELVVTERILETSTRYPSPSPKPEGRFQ
The test is described as follows: ELISA: mouse PD-1-Fc immobilized in wells; scFv from conditioned medium of conv./PD-1 and 7x19/PD-1 CAR-T cells captured; detected with anti-FLAG tag or anti-6xHis tag; signal observed for both (FIG. 15). The protocol:
Prior to using various CAR-T cells in experiments, the concentration of anti-mPD-1 scFv (also referred to PD-1scFv) was measured using two kinds of ELISA kit. Specifically, a conditioned medium of the untransduced T cells, the anti-hCD20-CAR-expressing T cells, the anti-hCD20 CAR-IL-7/CCL19-expressing T cells, the anti-hCD20-CAR-anti-PD-1-antibody-expressing T cells, or the anti-hCD20-CAR-IL-7/CCL19-anti-PD-1-antibody-expressing T cells was collected after 2 days of cultivation, and the concentrations of […] in the conditioned medium were measured using ELISA. In the ELISA, a recombinant fusion protein including mouse PD-1 and immunoglobulin Fc portion was immobilized in the wells, PD-1 scFv was captured thereto, and an anti-FLAG tag or anti-6xHis tag was used for detection. In FIG. 15, the average value over the triplicate wells as well as the standard deviation thereof are indicated in the graph. In each graph, data are arranged from the left to the right: the untransduced T cells (uninf.), the anti-hCD20-CAR-expressing T cells (conv.), the anti-hCD20 CAR-IL-7/CCL19-expressing T cells (7×19), the anti-hCD20-CAR-anti-PD-1-antibody-expressing T cells (conv./PD-1), the anti-hCD20-CAR-IL-7/CCL19-anti-PD-1-antibody-expressing T cells (7×19/PD-1), and a culture medium only (data obtained by performing the same treatment on the culture liquid to which T cells were not added).
Background: ELISA stands for enzyme-linked immunosorbent assay.

B1: anti-mPD-1 scFv (anti-mouse-PD-1 scFv with FLAG tag and His tag, secreted by transduced mouse T cells) (scFv)
scFv: QFVLTQPKTVSESLGRTVTISCKRSSGSVGDYYVSWHQQRFGSSPKTVIYLDDERPSGVPKRFSGSIDSSSNSASLTITDLQTDDEADYFCLSYDSNNHFVFGSGTHLTVLGGGGSGGGGSGGGGSEVQLVESGGGLAQPGKSLKLSCEASGFTFSDYGMNWFRQAPGKGLEWVAYISSGSNKITYADTVKGRFTVSRDNGKNQLFLQMNNLKSEDTAIYYCVDSGFNSYSDVWGQGIQVTVSSDYKDDDDKFVEHHHHHH
notes: It was tested as conditioned medium and was not purified; also called anti-PD-1 scFv
In the case of B1, the binding result is given as “binds”.
